Assay: label from the status in PepcDB records

| Sequence | protein production |
| --- | --- |
| MSITATHDTSSKGRHALPALALLLLMTLSGCAARDMGDGTSPSLMERHATGKSLAPDAPGTPQRQGTPAAEAEAHLQRGLAYLAQDRPELAFEHFSRAASLAPEMVEPRLQRARLLVRRGMPNEAAADIEAVLAASPQHARAWELAGMVAFDRGLLDEAEADFTRAITLDPDLASCYAHLGAVHDYKGRPDLARDVYAAALVRFPQSGELHNNLGVAFSMLGDDASALHHFHEAVVLGASSERSWNNMGLALCRLGRFDEAFEAFRNAGGEAAAHNNLGYFFLVNGDASLAVQHLQRAVELEPRYYVRAAENLKRARLAARFAAGGVPVPAAGPQTGGIAGTPVNKAGVLPPATGKGPGTRTTGAGERVIQ | failed |
| MSITRRVRLSVDTCCYEAEIAGILRPQLLKGRMSVREEFDAWAAEGKDRGMEDRHWHTAKHVLARMPVEPGDTVLDLGTGSGYALRALRDTNDAGPCYGLDGSPEMLRNAREYTDDDGIGFLRGDFDALPFATDSIDHVFSMEAFYYASDPPHTLEEIARVLRPGGTANIAVNYYEENVHSHEWQEFIDIEMTRWSADEYREAFREAGLAVAAQDTIPDREVEIPPADTFPTDEFETREAMVERYRELGTLLTVGVATE | failed |
| MSIVSISYNQEEYIREALDGFAAQRTEFPVEVIIADDASTDATPRIIGEYAARYPQLFRPILRQTNIGVHANFKDVLSAARGEYLALCEGDDYWTDPLKLSKQVKYLDRHPETTVCFHPVRVIYEDGAKDSEFPPLSWRRDLSVDALLARNFIQTNSVVYRRQPSYDDIPANVMPIDWYLHVRHAVGGEIAMLPETMAVYRRHAHGIWHSAYTDRRKFWETRGHGMAATLEAMLDLVHGHREREAIVGEVSAWVLREIGKTPGRQGRALLLKSIADHPRMTMLSLQHRWAQTPWRRFKRRLSTELSSLAALAYATRRRALEGRDGGYRETTSPPTGRGRNVRGSHA | failed |
| MSIVVPAYEEAQSLPELADGVRAACEEAGLSFRLWIIDDGSRDETWEVVRGLCEDDPRVAGVRFRRNYGKSAALAVGFDRVQGRYVATMDADLQDDPDEIPALIDKLEEGGHDLVSGWKKDRKDPLRKTLPSRFFNWVTRLFSGLPLHDFNCGLKVYRRPVVKSIDVYGELHRYIPLLAKWEGYDRVAEKEVQHHPRKYGTTKFGVERFIQGFLDLITVVFLTRYAVRPMHFFGSMGTVAFALGFLVSLWLSFDKLVLGHPIGDRPLLLLGVLLILFGSQMFTTGLLGEMIIRPRMEDPSTYEVAEATGLADEAADVLEG | failed |
| MSIYKDINIASAKPSLKERKNIKHYALDHLNIDEKNNAPLFKTLLEDAMRVSSKEILLIVGGSSFYLKSILEGLSRMPKLSGEEVVKIEREIATLSNPYIFLKSIDPNMAFKIHPNDTYRTHKALEIFYATCTPPSEYFKANPKKPFEHAISLFALSIEKSALHNNIKRRTKNMLHSGLVEEIKALYTQYPKDSQPFKAIGVKESVLFLEKRLTLKELEEAITSNTMKLAKRQNTFNKTQFNNLYVGSAEEVRHAILKHSKSGIKG | failed |
| MSKAKAPINTDELKQKYGRVYEIRIEGLEYENGEEAEFVFYFTRPKVSDISRFTKELNSKPDMAMKNLTFSCIVPEQEEELRQAAEEFPGLTFNTASRLMEIVGASAATSLKKL | not failed |
| MSKDSNKIIEQSREIGISIIMPLYNVEEVILETLESIHEQTFDSYEVLLIDDGSTDKTIEIVTEYIKDKPRFKLYTQPNGGPASARNHGLRLAIGMYICFVDSDDILPNYSLQLMYDGAISTGAKLITGATKRFNSEGEWFIPMHIQYNIAKPGMKTLLKNPELFYSIGPCAKLYHHSLIDGVFFPENIRYGEDQPFVLHALLQAKDIYTVEKVVYYYRLRDGESQSLTQSVDKDPIRILKSVFQIFDYGEEELKKNNTDYELEHHHHHH | failed |
| MSKENPLKFLGIGSAFNPNYNNTSAYFELEDNLFLIDCGGGIFNSLLSLKLLEKYLHLNVLITHTHPDHIASLGQLILYCYYQLNKKITLIFPQSEIILNLLDYMGIRNDIYILKTPQDFVNYLSKLTVISLEQVHVNELPCFGYLIYLNNVTFYYSGDSKSIPLYILTKFLEGEIDFLFQDTCSENHNHHPHLSIKELSEQIPPSKRKQVYCMHIDEKFDVNLAKNLGFNIPQEIIVERDAK | failed |
| MSKGTLFDKVWDLHTVGTLPSGLTQLFIGLHLVHEVTSPQAFAMLRERGLKVLFPERTVATVDHIVPTENQARPFVDRLAEEMIQALEQNCQENNITFYNIGSGNQGIVHVIAPELGLTQPGMTIACGDSHTSSHGAFGAIAFGIGTSQVRDVLASQTLSLSKLKVRKIEVNGTLNPGVYAKDVILHIIRTLGVKGGVGYAYEYAGTTFEQMNMEERMTVCNMAIEGGARCGYVNPDQVTYDYLQGRDFAPQGADWEKAVAWWESIKSDADAEYDDVIVFNAADIPPTVTWGITPGQGIGVNQLIPQPEELLEEDRFVAEEAYRYMDLYPGQPIKGTKIDVCFIGSCTNGRLSDLQEAAKIAKGRHVAEGVKAFVVPGSERVKKAAEAEGLDKIFEAAGFEWREPGCSMCLAMNPDKLEGRQISASSSNRNFKGRQGSASGRTLLMSPAMVATAAIQGEVADVRELL | not failed |
| MSKHQRPRILITGAAGALAQQVIRRLRESCDLVAVDFREQVYLGDDIPSYCIDFNKRVFEDLFRRYEFDGVIHLGRILSSQLTRMRRYNANVLGTQKLLDLSHKYGIRRVIVLSTYHVYGAVAYNPALIDESAPLKSAGLSADLVDSVELENLANIYLWRYPELNITILRPCNIVGPGVRNTMSTLLSSERAPVLAGFSPMMQFIHIDDMADAIVAAWAKPVKGVFNVAPQDWVAYQHALKLCGCKTIPIPSIPPSVPKAIARVLNLRSFPPYLMAFFKYPVVIDGRAFAREFGFEPKRPLKEIFRYYRDNKKPV | failed |
| MSKIWSKEETLWSFALYGTAVGAGTLFLPIQLGSAGAIVLFITALVAWPLTYWPHKALSQFILSANIAPGTGITGAVNHYYGKKIGNLITGLYFLAFFVVVLIYAVAITNSLAEQVAHRTPMTPGLRALLSLGVVLVLNLIFLMGRQVTIKVMGFLVFPLIACFLFLSLYLIRDWHPEHLTSQMQFSPQTLHQVWISIPVMVFAFSHTPIISTFAIDQQEKHGDLAMGKCKKIMKVAYTIICASVLFFVFSCLLAIPATYIETARDQGVTILSALSMVPGAPGWLAVTGIIVAVVAMSKSFLGTYFGVIEGASEIVKSSLGLLGVRKSRAFNRAMSILLVSAFTFAVCFINPNAISMIYAISGPLIAMILFIMPTLSTWLIPALKPYRSVGNAITLVVGLLCVSVMFFG | failed |
| MSKKRIIALILAVVIVLGGIIMSSISAVVSSLFSESTTSDTNPFTEKVEKEGNSSKRIAHLTLNGEITEGTGGGLFGGEGYNHEAFLKQLDNVKKDDSIKGVLLTVNTPGGGTYPSDEIYEKIKEIKQKHKKIYVHMDSMAASGGYYISAPADKIYAGPQTMTGSIGVIMSSIDYSGLQKNLGIKQNVIKSGEHKDILSSSREMTSEERDILQSVLDDSFNRFVNIVKDGRDMPESKVRKLADGRIYSAQQAKSNGLIDEIGYEDQTVKALKKDINAKDAEVFEYSTDGGWFSSMYNVKSSISQFTNEIKDVKSIITNDTKTEPMYLYEGLEHHHHHH | failed |
| MSKLAQIVQKLKKQGIEAAVLSDPVSINYLTGFYSDPHERLMFLFLFADQEPLLFLPELDALRAKSILDISVTGYLDFENPLEKIKTLLPKTNYSKIALEFDNLNVTKFKGLETIFSGQFTNLTPLINRMRLIK | failed |
| MSKLDLHQMTTQDLVALFAKVTVEQDDALLGNQISRFNRLFGVMAEIADELKARDGDQRTALLSLFEYPNMQVRLQAAKLTLAVAPVKAREQLEAIVSSKWFPQAGDAGMCLDLLDDGTFKPK | not failed |
| MSKLFPGEVFANTADFDTGIRQLLPRYDEMLEVICRCLPLTSRRILDLGCGTGELSLKILQRCPDAQVIALDYSPRMLKFAQNKIVASGYKERWTGLQADFGDWAINPETLNIGNEFDACVSSLAIHHLYDEMKLQLFQRIAASLTPNGCFWNADPILPESPTLAEIYQAAREEWVSEQGSNFTEVRAKVGDSSPQGYSNPDQLATLDTHLQMLTKSGFTTVAVPWKYYGLAVFGGWVKLEHHHHHH | not failed |
| MSKLTLGSYPHMLGFEQLERLLERSAKSGNEGYPPYNIEQTSETSYRITLAVAGFAEADLSITVEDRQLVIRGRQSDDSEGRVFLHRGIAARQFQRMFVLAEGVEVGEAVMENGLLHVDLSRAVPQSVVQTINIRKG | failed |
| MSKNNTLSMSPNFFVSGGVLLAIFTLIHLLYAGLIRPAAEVAMAEKGTEALTAFSVIFKDVEQQVCISLMLFCLFLMLYKLWRLIDEEEIYSRDLLESYDKSEALDVDAALNDLESSAYKETPAYSTWINCIRRFKNTKNVQHAADTIESSVDNIAIQLESGNNMIRYIIWAIPSIGFVGTVRGIGSALAQADKALDGDIAGMTASLGVAFNSTLVALFISLILMLFMHLLNSRQDKMVIRTQESCEKHLLSHLHS | failed |
| MSKRMRPSWYRDSPPKQLPYAFVPEEDDDVVILPQVDNSALLGRLQLSLVGRMFHQGGRSTEALLSFLPNIWDVEGRVRGVSLGDSRFQFFFESETDLQKVLNKRPCHFSKWSFALERWKSHIGISFPDTMTFWIKTEGIPTEFWEEEVLRNFGASIGAVRRVDSSKGRLQISVKADVPFRFNKNAQLPNGEVVKVKLFYEKLF | failed |
| MSKVALFAGGDLSYISRDFDYFVGIDRGSLFLLENGLPLNMAVGDFDSVSQKAFTDIKEKAELFITAHPEKNDTDTELALKEVFARFPEAEVTIFGAFGGRMDHLLSNIFLPSDPGIAPFMAQIALRDQQNMITYRPAGQHLIHQEEGMTYVAFMAEGEADLTITGAKFELTQDNFFKKKIYSSNAFIHQPITVSLPSGYLIIIQSKDWSLEHHHHHH | not failed |
| MSKVFICAAIPDEQAIKEEGAVAVATAIEAGDERRARAKFHWQFLEHYPAAQDCAYKFLVCEDKPGIPRPALDSWDAEYMQENRWDEGAASFVPVETESDPMNVAFDKLAPEVQNAVMVKFDTCENITVDMVISAQELLQEDMATFDGHIVEALMKMPEVNAMYPELKLHAIGWVKHKCKPGAKWPEIQAEMRIWKKRREGERKETGKYTSVVDLARARVHRQHTENSAEKIPPVTAVIRREYKQTWKTLDDELAYALWPGDVDAGNIDGSIHRWAKNEVIDNDREDWKRISASMRKQPDALRYDRQTIFGLVRERPIDIHKDPVALNKYITEYLTTKGVFEDEGTNQSATDTLSSPVPETDAVETAIPDNEKTECKVEVEPSVEREGPFYFLFTDKDGEKYGRANKLSGLDKALAAGATEITKEEYFARKNGTYTGLPQNANTAQNSEQPEPVKVTADEVKKIMQAANISQPDANQLLAASRGEFVAGISDPNDPKWVKGIETRDSVNQNQQETEQNDQKAEQNSPNTQQNEPETKQPEPVAQQEPEKVCTACGQTGGGNCPDCGAVMGDATYQETFDEEYQVEVQEDDPEEMEGAEHPHKENTDGNQHHDSDNETGETADHSIKVNGHQEITSTSRTCDHLMIDLETMGKNPDAPIISIGAIFFDPQTGDMGPEFSKTIDLETAGGVIDRDTIKWWLKQSREAQSAIMTDEIPLDDALLQLREFIDENSGEFFVQVWGNGANFDNTILRRSYERQGIPCPWRYYNDRDVRTIVELGKAIDFDARTAIPFEGERHNALDDARYQAKYVSVIWQKLIPNQADF | failed |
| MSKVLVLKSSILAGYSQSGQLTDYFIEQWREKHVADEITVRDLAANPVPVLDGELVGAMRPGDAPLTPRQQDALALSDELIAELKAHDVIVIAAPMYNFNIPTQLKNYFDLIARAGITFRYTEKGPEGLVTGKRAVVLSSRGGIHKDTPTDLIAPYLKVFLGFIGITDVNFVFAEGIAYGPEVAAKAQADAKAAIDSVVAA | not failed |
| MSKVLVLKSSILAGYSQSNQLSDYFVEQWREKHSADEITVRDLAANPIPVLDGELVGALRPSDAPLTTRQQEALALSDELIAELKAHDVIVIAAPMYNFNISTQLKNYFDLVARAGVTFRYTENGPEGLVTGKKAIVITSRGGIHKDGPTDLVTPYLSTFLGFIGITDVKFVFAEGIAYGPEMAAKAQSDAKAAIDSIVAA | failed |
